Assay results: patent US9920133B2, “Anti-tissue factor monoclonal antibody” (NATIONAL CANCER CENTER, priority 2014, dated 2018)

Assays:
[1] = system: Pancreatic cancer cells BxPC3 that express TF in high amounts; assay: Internalization assay (anti-hTF antibodies); assay type: cell-based, human; details: 30 μg Alexa 647-labeled antibody, culturing for 3 hours, fluorescence microscope
Procedure: (§1) Each monoclonal antibody obtained as described above was subjected to the following internalization assay.
Pancreatic cancer cells BxPC3 that express TF in high amounts were seeded into a four-chamber Culture Slide (BD) at 5×10^4 cells/chamber, and cultured in RPMI 1640 medium at 37° C. under a 5% CO2 environment for 12 hours. The resultant was washed three times with PBS, and then 30 μg of antibody labeled with an Alexa 647 fluorescence labeling kit (Invitrogen) was diluted with 1 ml of RPMI 1640 medium and added to each chamber, followed by culturing for 3 hours. After 2 hours from the initiation of this culturing, Lysotracker® RED-DND99 (Invitrogen) was added to the culture solution to have a final concentration of 75 nM, followed by further culturing for 1 hour. Then, the resultant was washed three times with PBS. After that, immobilization was performed with 4% paraformaldehyde, and nuclear staining was performed with 4′,6-diamidino-2-phenylindole (DAPI), followed by mounting with Fluoromount-G® (Southern Biotech). Then, the cells were observed using a fluorescence microscope (Keyence).

[2] = Body weight in the antitumor effect confirmation test; assay type: in vivo, nude mice (BALBc nu/nu); details: BxPC3 xenograft nude mice, 10 mg/kg tail vein on Day 0, 4, 8, until Day 30
Procedure: (§2) 1×10^7 cells/100 μL of human pancreatic cancer cells (BxPC3) were implanted subcutaneously into the backs of 4-week-old nude mice (BALBc nu/nu, female), and treatment was initiated when the tumor volume (calculated based on the tumor diameter) reached about 200 mm^3. The day of initiation of the treatment was defined as Day 0, and a drug was administered to the tail vein once on each of Day 0, Day 4, and Day 8 (administration three times in total). hTF-MMAE was used as the drug, and physiological saline was administered as a control (each group: N=7). The dose of the drug was 10 mg/kg per administration (antibody amount: about 200 μg/mouse). Thereafter, the tumor diameter and the body weight were measured twice a week until Day 30. The ratios of the tumor volume and the body weight to the tumor volume and the body weight at Day 0 are shown in FIG. 4 and FIG. 5, respectively.

[3] = system: Human pancreatic cancer cells (BxPC3); assay: Cytocidal effect confirmation test; assay type: cell-based; details: BxPC3, 72 hours after addition, compared to mTF-MMAE
Procedure: Human pancreatic cancer cells (BxPC3) were added to a 96-well plate at 3×10^3 cells/well, and cultured in RPMI medium containing 10% FCS, penicillin (100 U/ml), and streptomycin (100 μg/ml) hTF-MMAE was added to the wells at various drug concentrations, and cell survival rates 72 hours after the addition were calculated.
It should be noted that, as a comparative test, a similar test was performed using, in place of hTF-MMAE, mTF-MMAE obtained by binding MMAE, in the same manner as above, to a monoclonal antibody (mTF) against mouse TF not expressed in human cancer cells, and a cell survival rate was calculated. The ratio (%) of each cell survival rate, with the cell survival rate of a negative control (no addition of a drug sample) being defined as 100%, is shown in FIG. 3.

[4] = system: human pancreatic cancer cells (BxPC3) implanted subcutaneously; assay: Antitumor effect confirmation test (tumor volume); assay type: in vivo, nude mice (BALBc nu/nu); details: BxPC3 xenograft nude mice, 10 mg/kg tail vein on Day 0, 4, 8, until Day 30
Procedure: as §2

[5] = system: Mouse B16 melanoma cells and cells thereof that were forced to express TF; assay: Internalization assay (anti-mTF antibody); assay type: cell-based; details: mouse B16 melanoma cells and TF-forced-expression cells, 30 μg Alexa 647-labeled antibody, 3 hours
Procedure: as §1
Mouse B16 melanoma cells and cells thereof that were forced to express TF were seeded into a four-chamber Culture Slide (BD) at 5×10^4 cells/chamber, and cultured in RPMI 1640 medium at 37° C. under a 5% CO2 environment for 12 hours. The resultant was washed three times with PBS, and then 30 μg of antibody labeled with an Alexa 647 fluorescence labeling kit (Invitrogen) was diluted with 1 ml of RPMI 1640 medium and added to each chamber, followed by culturing for 3 hours. After 2 hours from the initiation of this culturing, Lysotracker® RED-DND99 (Invitrogen) was added to the culture solution to have a final concentration of 75 nM, followed by further culturing for 1 hour. Then, the resultant was washed three times with PBS. After that, immobilization was performed with 4% paraformaldehyde, and nuclear staining was performed with 4′,6-diamidino-2-phenylindole (DAPI), followed by mounting with Fluoromount-G® (Southern Biotech). Then, the cells were observed using a fluorescence microscope (Keyence).

recombinant hTF antigen = target: T1, recombinant hTF antigen (Homo sapiens, UniProt P13726); assay: Anticoagulant activity evaluation (prothrombin time); assay type: biochemical; details: based on prolonged coagulation time ratio
T1 construct: made in house; host or cells: Escherichia coli
T1 sequence (P13726 with tags, fused parts or gaps): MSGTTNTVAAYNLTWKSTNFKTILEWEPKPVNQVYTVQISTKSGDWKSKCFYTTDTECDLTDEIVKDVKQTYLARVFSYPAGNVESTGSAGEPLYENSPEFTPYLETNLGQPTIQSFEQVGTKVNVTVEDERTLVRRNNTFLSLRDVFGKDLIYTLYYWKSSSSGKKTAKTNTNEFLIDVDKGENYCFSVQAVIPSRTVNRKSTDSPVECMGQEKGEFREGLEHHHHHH
Procedure: The prothrombin time of each of the anti-hTF monoclonal antibodies (No. 1849 and No. 1859) was measured as described below.
3 μg of the antibody was added to 350 ng of a recombinant hTF antigen, and PBS was added to a total volume of 5 μl. An antigen-antibody reaction was performed for 15 minutes under shaking at 37° C. and 600 rpm. To the reaction solution, 50 μl of human […] subjected to anticoagulant treatment with 3.8% sodium citrate, and 100 μl of 25 mM CaCl2 were added, and at the same time, culturing was performed under shaking at 37° C. and 600 rpm. The period of time until a fibrin clot was formed (prothrombin time) was measured. The prolonged coagulation time ratio (prothrombin time ratio) of each antibody when the prothrombin time in a control using PBS in place of the reaction solution is defined as 1 are shown in Table 3 and FIG. 2.

B1: No. 1849: rat anti-human tissue factor monoclonal antibody, heavy/light chain variable regions SEQ ID NOS: 9 and 10 (antibody, V domains shown)
VH: EVQLVESGGGLVQSGRSLKLSCAASGFTFSDYNMAWIRQAPKKGLEWVAAIIYDGTRTYYRDSVRGRFTISRDNAKSTLYLQVDSLRSEDTATYYCATGDSYTNFAYWGQGTLVTVSS
VL: EIVLTQSPTTMAASPGEKVTLTCRASSSLSYMHWYQQRSGTSPKLWIYETSKLASGVPNRFSGSGSGTSFSLTIDSMETEDAATYYCQQGNSYPRTFGGGTKLELK
modifications: rat
ability to be internalized (labeling substance transferred into cells) [1]: had the ability to be internalized

B2: hTF-MMAE: anti-hTF monoclonal antibody (No. 1849) having monomethyl auristatin E (MMAE) bound thereto, three to five MMAE molecules per antibody (conjugate)
VH: B1 VH
VL: B1 VL
modifications: non-natural residues
body weight (ratio to Day 0) [2]: a reduction in body weight was not found
cytocidal effect (cell survival rate) [3]: remarkably excellent cytocidal effect
antitumor effect (tumor volume ratio to Day 0) [4]: remarkably excellent antitumor effect

B3: No. 1157: anti-mouse tissue factor monoclonal antibody, heavy/light chain variable regions SEQ ID NOS: 25 and 26 (antibody, V domains shown)
VH: MAEVMLVESGGGLVQPGRSLKLSCLASGFTFTDYGMNWIRQTPGKGLEWVASITVRNYIYYADTVKGRFTISRENAKNTLYLQMTSLTSEDTALYYCSRRTEGMDYWGQGVMVTVSS
VL: MTQSPSFLSASVGDRVTVTCKVSQNINGYLNWYQQKVGEAPKVLIYNTDNLQTDVPSRFSGSGSGTVFTLTISSLHPEDVATHFCLQHYSWPLTFGSGTQLEIKR
modifications: rat
ability to be internalized (fluorescence-labeled antibody transferred into cells) [5]: had the ability to be internalized by a cell expressing mTF

B4: No. 1859: anti-human tissue factor monoclonal antibody, heavy/light chain variable regions SEQ ID NOS: 17 and 18 (antibody, V domains shown)
VH: EVMLVESGPGLVQPSQTLSLICTVSGFSLTDYSVHWVRQPPGKGLEWVGVMWSGGTTTFNSGLKSRLSISRDTSKSQVFLKMYSLRTEDTAVYYCTRERAGSPLNWFAYWGQGTLVTVSS
VL: DIVMTQSPASLSASLEEIVTITCQASQDIGNYLSWYQQKPGKSPHLLIHSSTSLADGVPSRFSGSRSGTQYSLKINRLQVEDTGVYYCLQHYSGSRTFGGGTNLELK
modifications: rat
ability to be internalized (labeling substance transferred into cells) [1]: had the ability to be internalized
anticoagulant activity (recombinant hTF antigen): extremely small
